Results on eleven molecules are retold here after patent US20140106371A1 (DUBLIN CITY UNIVERSITY, published 2014).

The chains are these.
B1: H50E (rPA-ILNm protein) (other)
chain: RGSHHHHHHGSMAWKGEVLANNEAGQVTSIIYNPGDVITIVAAGWASYGPTQKWGPQGDREEPDQGLICHDAFCGALVMKIGNSGTIPVNTGLFRWVAPNNVQGAITLIYNDVPGTYGNNSGSFSVNIGKDQS
B2: H50Q (rPA-ILNm protein) (other)
chain: B1 chain with E62Q
B3: H50L (rPA-ILNm protein) (other)
chain: B1 chain with E62L
B4: H50P (rPA-ILNm protein) (other)
chain: B1 chain with E62P
B5: H50T (rPA-ILNm protein) (other)
chain: B1 chain with E62T
B6: H50K (rPA-ILNm protein) (other)
chain: B1 chain with E62K
B7: H50V (rPA-ILNm protein) (other)
chain: B1 chain with E62V
B8: H50A (rPA-ILNm protein) (other)
chain: AWKGEVLANNEAGQVTSIIYNPGDVITIVAAGWASYGPTQKWGPQGDREAPDQGLICHDAFCGALVMKIGNSGTIPVNTGLFRWVAPNNVQGAITLIYNDVPGTYGNNSGSFSVNIGKDQS
notes: not shown: N-terminal RGS-6HIS tag and added vector residues (pQE30)
B9: H50R (rPA-ILNm protein) (other)
chain: B8 chain with A50R
notes: as for B8
B10: H50S (rPA-ILNm protein) (other)
chain: B8 chain with A50S
notes: as for B8
B11: H50F (rPA-ILNm protein) (other)
chain: B8 chain with A50F
notes: as for B8

Changes are numbered by the printed parent chain. Names may count otherwise.

T1 sequence (P02787 20-698 limits assumed): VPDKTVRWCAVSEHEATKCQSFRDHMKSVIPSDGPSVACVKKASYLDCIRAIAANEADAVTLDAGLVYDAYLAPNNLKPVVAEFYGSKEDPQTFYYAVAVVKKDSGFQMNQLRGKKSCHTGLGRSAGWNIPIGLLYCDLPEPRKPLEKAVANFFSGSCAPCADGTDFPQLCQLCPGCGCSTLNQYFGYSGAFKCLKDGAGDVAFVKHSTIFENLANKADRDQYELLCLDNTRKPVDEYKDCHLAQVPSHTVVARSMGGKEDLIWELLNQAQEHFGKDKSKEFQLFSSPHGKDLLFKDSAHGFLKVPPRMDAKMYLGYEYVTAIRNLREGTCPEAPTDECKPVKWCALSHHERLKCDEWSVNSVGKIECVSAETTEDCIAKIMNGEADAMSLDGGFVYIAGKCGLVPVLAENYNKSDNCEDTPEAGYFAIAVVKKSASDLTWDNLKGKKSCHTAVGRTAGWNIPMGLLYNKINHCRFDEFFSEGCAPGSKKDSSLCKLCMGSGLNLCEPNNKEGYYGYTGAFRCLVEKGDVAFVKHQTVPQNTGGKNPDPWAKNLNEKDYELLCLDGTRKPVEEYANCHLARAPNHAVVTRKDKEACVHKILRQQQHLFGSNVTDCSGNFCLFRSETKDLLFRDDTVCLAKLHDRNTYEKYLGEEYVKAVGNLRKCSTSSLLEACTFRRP

This experiment concerns the target T1, asialotransferrin (human, UniProt P02787 20-698, N-linked glycans desialylated with neuraminidase (Clostridium perfingens), exposing terminal LacNAc (β1,4-linked galactose); partially desialylated by paragraph 70).
T1 construct: Same polypeptide as transferrin; differs only in glycans; also called AsT
The experiment can be described thus: qualitative ELLA.
Consider B1, for which the binding result is “no binding (tested: 2 µg mL^-1)”.

B2: the binding result is on record as “no binding (tested: 2 µg mL^-1)”.

As to B3, the binding result was “no binding (tested: 2 µg mL^-1)”.

Take B4: the binding result is “no binding (tested: 2 µg mL^-1)”.

Regarding B5, the binding result is reported as “no binding (tested: 2 µg mL^-1)”.

As for B6, the binding result was “no binding (tested: 2 µg mL^-1)”.

For the molecule B7, the binding result is recorded as “no binding (tested: 2 µg mL^-1)”.

In the case of B8, the binding result is given as “no binding (tested: 2 µg mL^-1)”.

In the case of B9, the binding result was “no binding (tested: 2 µg mL^-1)”.

Take B10: the binding result is reported as “no binding (tested: 2 µg mL^-1)”.

B11: the binding result is recorded as “no binding (tested: 2 µg mL^-1)”.
